According to paper PMC5356539:
Where “and” joins values, the source holds several entries; their conditions need not be identical. Equal values may be shown once.

What was measured:
Assay in all cases: plate binding assay (luminescent)
AGO2 full-length (human) = details: Ca2+ and Mg2+; 3'-biotinylated cytidine (bis)phosphate ligated; ELISA plate-immobilized protein, BSA block; PBS with or without 0.5 mM MgCl2, or HBSS with 1.26 mM Ca2+ and 0.9 mM Mg2+; neutral pH; 2 h at 37 C or overnight …
poly-ornithine = details: miRNA species not given; 3'-biotinylated cytidine (bis)phosphate ligated; ELISA plate-immobilized protein, BSA block; PBS with or without 0.5 mM MgCl2, or HBSS with 1.26 mM Ca2+ and 0.9 mM Mg2+; neutral pH; 2 h at 37 C or overnight
sNRP1 (human) = sNRP1 (human) (UniProt O14786); details: 3'-biotinylated cytidine (bis)phosphate ligated, ELISA plate-immobilized protein, BSA block, PBS with or without 0.5 mM MgCl2, or HBSS with 1.26 mM Ca2+ and 0.9 mM Mg2+, neutral pH, 2 h at 37 C or overnight …
NRP1-Fc (rat) = details: 3'-biotinylated cytidine (bis)phosphate ligated; ELISA plate-immobilized protein, BSA block; PBS with or without 0.5 mM MgCl2, or HBSS with 1.26 mM Ca2+ and 0.9 mM Mg2+; neutral pH; 2 h at 37 C or overnight …

Chain of sNRP1 (human) (O14786 22-640): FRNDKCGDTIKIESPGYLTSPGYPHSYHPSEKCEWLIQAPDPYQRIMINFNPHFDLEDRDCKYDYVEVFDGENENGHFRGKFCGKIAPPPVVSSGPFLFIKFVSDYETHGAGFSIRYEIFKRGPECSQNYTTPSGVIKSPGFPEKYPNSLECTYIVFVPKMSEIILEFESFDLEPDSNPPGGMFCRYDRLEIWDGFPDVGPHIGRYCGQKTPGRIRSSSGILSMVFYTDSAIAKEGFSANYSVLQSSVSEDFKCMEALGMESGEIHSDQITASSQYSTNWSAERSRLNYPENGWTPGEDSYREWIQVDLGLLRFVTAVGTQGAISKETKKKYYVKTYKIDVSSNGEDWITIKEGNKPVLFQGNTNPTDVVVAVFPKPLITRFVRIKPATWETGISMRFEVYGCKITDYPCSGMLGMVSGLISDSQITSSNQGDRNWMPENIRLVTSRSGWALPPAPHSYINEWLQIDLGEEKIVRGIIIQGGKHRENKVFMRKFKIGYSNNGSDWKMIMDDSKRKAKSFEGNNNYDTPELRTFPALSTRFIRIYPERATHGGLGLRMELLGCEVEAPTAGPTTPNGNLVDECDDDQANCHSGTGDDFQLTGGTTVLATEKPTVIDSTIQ

Substance: miR-20a
- Kd (AGO2 full-length (human)): 7.27 nM
- Kd (poly-ornithine): 6.67 nM

Substance: miR-138
- Kd (sNRP1 (human); 0.9 mM Mg2+, 1.2 mM Ca2+ (1.26 in Methods)): 0.772 nM
- Kd (sNRP1 (human)): 0.348 nM

Substance: miR-331
- Kd (NRP1-Fc (rat)): 0.911 nM

Substance: miR-422
- Kd (sNRP1 (human)): 0.344 nM and 0.138 nM
